In patent US5624904A, “Method for treating gram positive septicemia” (Massachusetts Institute of Technology, priority 1993, dated 1997):

How the values were obtained:
soluble MSRP = assay: bead-binding competition assay: ligands interfering with binding of labeled soluble receptor to poly G beads, M-BSA beads or LTA; details: inhibitor at 400 μg/ml
Protocol: The ability of the soluble MSRP to block scavenger receptor-mediated cellular metabolism of known MSRP ligands, such as radiolabeled endotoxin, whole Gram-positive bacteria, or LTA, is measured by competitive inhibition assays. […] This bead-binding assay can be used to measure the association of endotoxin, lipid IVA, LTA, and similar molecules, to soluble forms of the MSRP.

Enterococcus hirae = assay: microbial binding assay (whole cell assay) of [35S]s-bSR-I
Protocol: (§1) Gram-positive bacteria were grown overnight either on LB agar plates (L. monocytogenes, B. subtilis) or on 5% sheep blood agar plates (all other organisms). Fresh colonies were inoculated into Todd Hewitt Broth (DIFCO) and were grown to stationary phase (16-18 hours; 1×10^9 CFU/1 ml) at 37° C. without shaking. Initial experiments indicated greater binding of MSRP to organisms grown to stationary phase compared to organisms used at log phase. Thus, stationary phase organisms were used in all experiments, although results were similar for log phase organisms.
(§2) All bacterial strains were harvested by centrifugation at 3500×g for 10 minutes and washed twice in cold Buffer B (20 mM Tris base at pH 8.0/150 mM NaCl/0.05% NAN3) before resuspending to a final density of approximately 1×10^9 bacteria/ml (O.D.600 =2.0).
(§3) [^35 S]methionine-labeled conditioned medium was prepared from transfected CHO[s-bSRI]-A2 cells and untransfected CHO cells. The media were designated [^35 S]s-bSR-I medium (containing s-bSR-I) and [^35 S]control medium (containing no s-bSR-I) respectively. As described by D. Resnick et al., 268 J. Biol. Chem. 3538-3545 (1993), CHO[s-bSR-1]-A2 and untransfected CHO cells were plated at a density of 9×10^5 cells/100 mm dish in medium B. Cells were grown to 80% confluence (approximately 48 hours), washed, and metabolically labeled by addition of 4.5 ml of medium A prepared with methionine- and cysteine-freeHam's F-12 and supplemented with 0.2 mM L-cysteine, and 80 μCi/mi [^35 S]methionine (Trans ^35 S-label with 70% methionine, purchased from ICN Biomedicals, Irvine, Calif.). After a 5 hour incubation at 37° C., supernatants were collected, and protease inhibitors and Buffer A+BSA (20 mM Tris base at pH 8.0/150 mM NaCl/1 mM CaCl2; containing 2 mg/ml bovine serum albumin and 0.05% NAN3) were added at final concentrations of 1 mM phenylmethylsulfonylfluoride (PMSF) (Sigma, St. Louis, Mo.), 1 μM leupeptin (Sigma), and 1 μM pepstatin (Sigma); 2:1 volume ratio of supernatant to buffer. The samples were then clarified by centrifugation (1000×g, 15 minutes, 4° C.) and stored in Falcon 2099 tubes that had been precoated with Buffer A+BSA.
(§4) Thirty minutes prior to binding assays, unlabeled L-methionine ((Sigma, St. Louis, Mo.) at 10 mM final concentration was added to suspensions of microorganisms grown as described above to minimize incorporation of free [^35 S]methionine into microbial proteins during the assays. One ml assay mixtures containing 200 μl of bacterial suspension (approximately2×10^8 bacteria), 50 μl of Buffer A (20 mM Tris base at pH 8.0/150 mM NaCl/1 mM CaCl2), and 750 μl of either [^35 S]s-bSR-I or [^35 S]control medium were prepared in microcentrifuge tubes and incubated overnight on a rotator at 4° C. Maleylated bovine serum albumin (M-BSA) was coupled to CNBr-activated Sepharose™ (Pharmacia Fine Chemicals, Piscataway, N.J.) at approximately 3 mg M-BSA/mi hydrated resin. Suspensions of M-BSA-coupled Sepharose™ beads (M-BSA beads) (25 μl ) were used in place of microorganism suspensions as positive controls.
(§5) After the overnight incubation, the bacteria or beads were pelleted by centrifugation in a microcentrifuge at 12,500×g for 5 minutes at 4° C. and washed twice with cold buffer A. In experiments examining the ability of LTA to inhibit the binding of the s-bSR-I to M-BSA beads, the beads were allowed to settle by gravity before each washing step, to prevent pelleting of LTA micelies. The washed pellets were then resuspended in SDS-PAGE sample buffer containing 2% β-mercaptoethanol, boiled for 5 minutes, and insoluble material was removed by centrifugation at 12,500×g for 2 minutes. The reduced samples were fractionated by electrophoresis through 10% polyacrylamide gels, as described by Resnick et al. (1993), and the labeled proteins were visualized by autoradiography with Kodak X-AR film. […]

Streptococcus agalactiae = assay: as above
Protocol: as §1, §2, §3, §4, §5

Streptococcus pyogenes = assay: as above
Protocol: as §1, §2, §3, §4, §5

Gram-positive bacteria = assay: microbial binding assay (whole cell assay), all species and strains of Table I; details: for binding of [35S]s-bSR-I to Gram-positive bacteria: all species and strains tested (Table I)
Protocol: as §1, §2
as §3, with “The samples were then clarified by centrifugation (1000×g, 15 minutes, 4° C.) and stored in Falcon 2099 tubes that had been precoated with Buffer A+BSA.” left out

P388D1 cells = assay: cell binding assay: FITC-labeled S. pyogenes T1/195/2 bound to macrophage-like cells expressing MSRP; assay type: cell-based, murine; details: 30 minutes 37° C., mean ± SD of three experiments, without poly G 72±8
Protocol: The ability of poly G to inhibit S. pyogenes binding was used in experiments to examine the interaction of FITC-labeled pyogenes (strain T1/195/2) with a cultured murine macrophage-like cell line, P388D1, shown previously to express MSRP by J. Ashkenas et al., 34 J. Lipid Res. 983-1000 (1993).
P388D1 cells were maintained in dishes in Ham's F-12 with 10% fetal calf serum, 100 units/ml penicillin, and 100 μg/ml streptomycin. For experiments, approximately 12,500 cells were plated on 1 cm glass cover slips, in media lacking antibiotics. Cells were allowed to adhere for at least 24-36 hours, then washed in Ham's F-12 containing 10% fetal calf serum. S. pyogenes, either unlabeled or FITC-labeled, was added (final dilution of 1:250 from a stock solution of O.D.600 =1.0) in the presence or absence of varying concentrations of poly G. Mixtures were incubated for 30 minutes at 37° C. in 5% CO2, then washed three times in PBS, and fixed with 100% cold methanol. Samples containing non-FITC labeled organisms were Gram-stained, then cover slips were mounted with Moviol and DAPCO. Slides were viewed in blinded fashion by two observers using fluorescence and phase contrast microscopy and a Nikon Microphot FXA epifluorescence microscope. The results (bacteria bound per 100 P388D1 cells) represent the means ± standard deviations determined from three experiments in which at least 100 P388D1 cells were counted for each condition.

Bacillus subtilis = assay: microbial binding assay (whole cell assay) of [35S]s-bSR-I
Protocol: as §1, §2, §3, §4, §5

Listeria monocytogenes = assay: as above
Protocol: as §1, §2, §3, §4, §5

Staphylococcus aureus = assay: as above
Protocol: as §1, §2, §3, §4, §5

Streptococcus mutans = assay: as above
Protocol: as §1, §2, §3, §4, §5

S. pneumoniae = assay: as above; set-up: species or system Streptococcus pneumoniae; details: two encapsulated and one rough strain
Protocol: as §1, §2
[^35 S]methionine-labeled conditioned medium was prepared from transfected CHO[s-bSRI]-A2 cells and untransfected CHO cells. The media were designated [^35 S]s-bSR-I medium (containing s-bSR-I) and [^35 S]control medium (containing no s-bSR-I) respectively. […]

Molecule: maleylated BSA: maleylated bovine serum albumin, MSRP ligand
- competition with binding of labeled soluble receptor to poly G beads, M-BSA beads, or LTA (soluble MSRP): successful competitors

Molecule: poly C
- competition with binding of labeled soluble receptor to poly G beads, M-BSA beads, or LTA (soluble MSRP): failed to compete

Molecule: polyGuanosine [poly G, reference compound]
- competition with binding of labeled soluble receptor to poly G beads, M-BSA beads, or LTA (soluble MSRP): successful competitors
- competition with binding of receptor to Enterococcus hirae (Enterococcus hirae; 400 μg/ml poly G): competed
- competition with binding of receptor to S. agalactiae (Streptococcus agalactiae; 400 μg/ml poly G): competed
- competition with binding of S. pyogenes to s-bSR-I (Streptococcus pyogenes; poly G 400 μ/ml added to assay mixture): effective competitor
- competition of poly G with [35S]s-bSR-I binding to Gram-positive bacteria (Gram-positive bacteria; extent of competition varied slightly between organisms): competitive
- number of cell associated bacteria/100 P388D1 cells (P388D1 cells; poly G 2 μg/ml): 43±4 bacteria/100 P388D1 cells
- number of cell associated bacteria/100 P388D1 cells (P388D1 cells; poly G 20 μg/ml): 28±9 bacteria/100 P388D1 cells
- number of cell associated bacteria/100 P388D1 cells (P388D1 cells; poly G 200 μg/ml): 22±5 bacteria/100 P388D1 cells

B1: s-bSR-I: truncated, secreted trimeric form of the type I bovine macrophage scavenger receptor containing all four extracellular domains, expressed in CHO cells (protein, UniProt P21758 77-453, looked up)
extracellular domain: KWETKNCTVGSVNADISPSPEGKGNGSEDEMRFREAVMERMSNMESRIQYLSDNEANLLDAKNFQNFSITTDQRFNDVLFQLNSLLSSIQEHENIIGDISKSLVGLNTTVLDLQFSIETLNGRVQENAFKQQEEMRKLEERIYNASAEIKSLDEKQVYLEQEIKGEMKLLNNITNDLRLKDWEHSQTLKNITLLQGPPGPPGEKGDRGPPGQNGIPGFPGLIGTPGLKGDRGISGLPGVRGFPGPMGKTGKPGLNGQKGQKGEKGSGSMQRQSNTVRLVGGSGPHEGRVEIFHEGQWGTVCDDRWELRGGLVVCRSLGYKGVQSVHKRAYFGKGTGPIWLNEVFCFGKESSIEECRIRQWGVRACSHDEDAGVTCTT
modifications: extracellular domain
notes: truncated, secreted trimeric form of the type I bovine macrophage scavenger receptor containing all four extracellular domains, expressed in CHO cells
- binding of [35S]s-bSR-I to Bacillus subtilis (Bacillus subtilis): bound
- binding of [35S]s-bSR-I to Enterococcus hirae (Enterococcus hirae; strain 9790, overnight 4° C., autoradiography): bound
- binding of [35S]s-bSR-I to Listeria monocytogenes (Listeria monocytogenes): bound
- binding of [35S]s-bSR-I to Staphylococcus aureus (Staphylococcus aureus): bound
- [35S]s-bSR-I binding, capsule-minus transposon mutants versus parent strains (Staphylococcus aureus; S. aureus isogenic mutants): equivalently or better
- [35S]s-bSR-I binding, capsule-minus transposon mutants versus parent strains (Streptococcus agalactiae; S. agalactiae isogenic mutants): equivalently or better
- binding of [35S]s-bSR-I to S. agalactiae (Streptococcus agalactiae; overnight 4° C., autoradiography): bound
- binding of [35S]s-bSR-I to Streptococcus mutans (Streptococcus mutans): bound
- binding of [35S]s-bSR-I to S. pyogenes (Streptococcus pyogenes; eleven strains, seven different M protein types (Table I), overnight 4° C., SDS-PAGE/autoradiography): bound
- dependence of [35S]s-bSR-I binding on bacterial protein synthesis or viability (Streptococcus pyogenes; organisms preincubated with 50 μg/ml chloramphenicol or 0.05% NaN3, or killed at 60° C. for 10 minutes): neither decreased
- specificity of [35S]s-bSR-I binding to S. pyogenes (Streptococcus pyogenes; strain T1/195/2): specific
- s-bSR-I binding, M protein-negative mutant versus parent (Streptococcus pyogenes; type 28 strain T28/150A/5 and spontaneous M protein-negative mutant T28/51/4-4): equivalently
- [35S]s-bSR-I binding, acapsular mutant versus wild type (Streptococcus pyogenes; wild type 87-282 and hyaluronic acid-negative transposon mutant TX4): equally well
- binding of [35S]s-bSR-I to S. pneumoniae (S. pneumoniae): minimal binding
- binding of [35S]s-bSR-I to Gram-positive bacteria (Gram-positive bacteria): bound
- binding of [35S]s-bSR-I to Gram-positive bacteria (Gram-positive bacteria; listed as secreted Type I Bovine MSRP): Bound
